Data: paper PMC6403371

Columns and labels:
cHSP27 C137S (human) [1] = target: cHSP27 C137S (human) (UniProt P04792); assay: NMR (1H-15N HSQC, G116 monomer and dimer peak intensities) against pH; [U-15N]-C137S at 250 μM in NMR buffer at pH 7, 25 °C, and separate samples at pH 6.5, 6.0 and 5.0, 1 bar; similar pH titrations on oxidised cHSP27; the rows are for pH 5 / low pH; dimer to monomers
cHSP27 C137S (human) [2] = target: cHSP27 C137S (human) (UniProt P04792); assay: high-pressure NMR (1H-15N HSQC); 200 μM [U-15N]-C137S in baroresistant buffer (100 mM Tris-HCl, 100 mM phosphate) pH 7, 25 °C, 14.1 T, 1 to 2500 bar; three-state model (dimer, monomer, unfolded); similar pressure titrations on oxidised cHSP27
cHSP27 C137S (human) [3] = target: cHSP27 C137S (human) (UniProt P04792); assay: 15N CPMG relaxation dispersion NMR; cHSP27 (1 mM, reduced with 5 mM BME, 14.1 T only) or C137S (1 mM and 0.3 mM; 25, 30, 35 °C; 11.7 and 14.1 T) in NMR buffer pH 7; global two-state fit; dimer to monomers
cHSP27 C137S (human) [4] = target: cHSP27 C137S (human) (UniProt P04792); assay: NMR titration; intensities of the G116 monomer and dimer resonances against protein concentration, pH 7, 1 bar; dimer to monomers
[5] = target: cHSP27(H124K/C137S) (human) (UniProt P04792); assay: as above

Kd (cHSP27 C137S (human) [1]) [µM]	fold increase of Kd at 1600 bar (against 1 bar) (cHSP27 C137S (human) [2]) [fold]	Kd (cHSP27 C137S (human) [3]) [µM]	population of the monomer at 1 mM (cHSP27 C137S (human) [3]) [%]	Kd (cHSP27 C137S (human) [4]) [µM]	Kd [5] [µM]	Substance
5000	10	0.5	1.5	0.7	–	cHSP27 C137S (from UniProt P04792 84-171) (domain or fragment)
–	–	–	–	–	1100	cHSP27(H124K/C137S) (from UniProt P04792 84-171) (domain or fragment)
